Assay results taken from patent US6103872A, “CAPON: a protein associated with neuronal nitric oxide synthase” (The Johns Hopkins University, priority 1998, dated 2000).
Numbering of substitutions follows the chain as printed.

Assays:
[1] = target: nNOS expressed in transfected HEK293 cells (lysate; also metabolically labelled and purified); assay: competition: nNOS (HEK-293) binding to immobilized GST-PSD95 in the presence of His6-CAPON
nNOS [2] = target: T1, nNOS (Rattus norvegicus, UniProt P29476); assay: CAPON C-terminal peptides as competitors for nNOS binding; parameters: expressed in transfected cells; host or cells: HEK293
nNOS/PSD95 interaction [3] = assay: Competition of His6-fusion proteins for nNOS binding to immobilized GST-PSD95; parameters: competition for / block of nNOS-PSD95 interaction: dose or concentration left out as unconfirmed; conditions: for block of nNOS/PSD95 interaction in vitro: no concentration stated
Procedure: (§1) The C-terminal 100 amino acids were fused to a His6 tag and added to HEK293 lysates transfected with nNOS expression plasmids at the indicated fusion protein concentration. This mixture was added to GST-PSD95 (amino acids 20-364) or GST-PSD93 (116-421), the regions of these proteins previously shown to interact with nNOS (Brenrman et al., 1996).
(FIG. 5B) Quantification of CAPON inhibition of the nNOS/PSD95 interaction. HEK293 cells were transfected with nNOS expression plasmids and then metabolically labeled with [^35 S] methionine. Radiolabeled nNOS was purified and mixed with His6 -CAPON as in (A), above. Bound nNOS was resolved by electrophoresis and counts were determined on a Phospholmager.
Transfections were performed with 10 μg of each plasmid using the calcium phosphate method. Following transfection, cells were sonicated in buffer A [50 mM Tris-HCl (pH 7.7), 100 mM NaCl, 2 mM EDTA, and 1% Triton X-100] and cleared by centrifugation. This cellular lysate was incubated with GST-fusion protein immobilized on glutathione-agarose for one hour at 4° C. and washed extensively in HNTG buffer [20 mM Hepes (pH 7.4), 500 mM NaCl, 10% glycerol, and 0.1% Triton X-100] five times, for ten minutes per wash at room temperature. A GST-CAPON fusion protein consisting of amino acids 379-503 was used for binding assays because it was more soluble when expressed in bacteria than larger CAPON fusion proteins.
For quantitative binding experiments, transfected cells were metabolically labeled overnight with […] [^35 S] methionine and nNOS was purified by NADPH elution of 2', 5' ADP ribose as described previously (Bredt and Snyder, 1990).
Since the nNOS PDZ domain is capable of both PDZ-PDZ interactions and PDZ-C-terminal peptide interactions we wondered whether CAPON and PSD95 can bind simultaneously to nNOS or whether their interactions with nNOS are mutually exclusive. To answer this question we incubated lysates of HEK-293 cells containing nNOS with various concentrations of a His6 -CAPON fusion protein, comprising the last 125 amino acids of CAPON, and then added these lysates to GST-PSD95 immobilized on glutathione agarose resin (FIG. 5A). After extensive washing of the resin, we assayed for nNOS bound to PSD95 by Western blot. […] Half maximal reduction of binding is evident between 5 and 50 nM His6 -CAPON (FIG. 5B). […] As controls, we examined the effects of 5 μM His6 -PIN or […] His6 -FK506 binding protein-12 kD (FKBP). […] These effects of CAPON likely reflect its binding to nNOS rather than to the PDZ domains of either PSD95 or PSD93 because CAPON fails to interact with either PSD93 or PSD95 using (i) a two-hybrid assay (see FIG. 1A) and (ii) in vitro experiments utilizing immobilized GST-PSD95 and purified recombinant CAPON (data not shown).

nNOS [4] = target: T1, nNOS; assay: nNOS catalytic activity; type: biochemical; conditions: data not shown
nNOS/PSD95 interaction [5] = assay: Coimmunoprecipitation of myc-PSD95 with HA-nNOS in transfected HEK293 cells; type: cell-based; conditions: cotransfection of full-length CAPON expression plasmid
Source text: FIG. 6. CAPON expression prevents the interaction of PSD95 and nNOS. HEK293 cells were transfected with various combinations of expression plasmids for HA-tagged nNOS (HA-NOS), myc-tagged PSD95, or CAPON. Following transfection, the lysates were immunoprecipitated with an anti-HA antibody and bound proteins were detected with the appropriate antibodies. Following cotransfection of HA-NOS and myc-PSD95, myc-PSD95 is detected in anti-HA immunoprecipitates. […] In the absence of HA-nNOS transfection, neither myc-PSD95 or CAPON is immunoprecipitated by anti-HA antibodies.
We wanted to determine if CAPON and PSD95 compete for binding to nNOS in intact cells. Accordingly, we transfected HEK-293 cells with various mixtures of expression plasmids containing cDNAs of hemagglutinin antigen (HA)-tagged nNOS, myc-tagged PSD95 and/or full-length CAPON. Following immunoprecipitation with antibodies to HA, we examined which proteins coprecipitated. In cells expressing HA-nNOS and myc-PSD95, antibodies to HA coprecipitate myc-PSD95 (FIG. 6). When various amounts of CAPON cDNA containing expression plasmids are also transfected, HA-immunoprecipitatescontain CAPON but substantially less PSD95.

[6] = target: nNOS (purified nNOS standard; preparation and species not stated); assay: peptide competition; format not described
nNOS PDZ domain = assay: Binding of mutagenized His6-CAPON fusion proteins to immobilized GST-NOS (1-100); conditions: His6-fusion of last 100 amino acids of CAPON, last four amino acids given
Procedure: His6 -fusion proteins of the last 100 amino acids of CAPON were generated and incubated with GST-NOS (1-100) immobilized on glutathione agarose.
Recently Cantley and associates (Songyang et al., 1997) identified consensus sequences for binding to several PDZ domains. Binding of PDZ ligands involves the C-terminus of proteins, with determinants of specificity lying within the eight or fewer C-terminal amino acids. A consistent requirement among all the PDZ domain ligands is a hydrophobic residue, such as valine or leucine, as the final amino acid.

[7] = target: T2, nNOS construct comprising amino acids 163-245 (PIN-binding domain of nNOS), Gal4 BD fusion (rat); assay: yeast two-hybrid with truncations of nNOS
T2 chain: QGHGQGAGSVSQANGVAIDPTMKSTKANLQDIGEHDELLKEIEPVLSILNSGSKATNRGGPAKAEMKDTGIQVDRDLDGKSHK

nNOS/PSD93 interaction = assay: Competition for nNOS binding to immobilized GST-PSD93
Procedure: as §1
Since the nNOS PDZ domain is capable of both PDZ-PDZ interactions and PDZ-C-terminal peptide interactions we wondered whether CAPON and PSD95 can bind simultaneously to nNOS or whether their interactions with nNOS are mutually exclusive. To answer this question we incubated lysates of HEK-293 cells containing nNOS with various concentrations of a His6 -CAPON fusion protein, comprising the last 125 amino acids of CAPON, and then added these lysates to GST-PSD95 immobilized on glutathione agarose resin (FIG. 5A). After extensive washing of the resin, we assayed for nNOS bound to PSD95 by Western blot. […] Half maximal reduction of binding is evident between 5 and 50 nM His6 -CAPON (FIG. 5B). […] As controls, we examined the effects of 5 μM His6 -PIN or […] His6 -FK506 binding protein-12 kD (FKBP). […]

Molecule: His6-CAPON fusion protein comprising the last 125 amino acids of CAPON
- IC50 [1]: 0.005 to 0.05 µM

Molecule: 16-residue peptides: 16-residue peptides of the CAPON C-terminus (LQRQELGDSLDDEIAV; UniProt O54960 488-503, looked up, fragment)
- IC50 (nNOS [2]; read-out: IC50 as competitor): 10 µM

Molecule: peptides comprising the C-terminal nine residues of CAPON: short, presumably unfolded, peptides comprising the C-terminal nine residues of CAPON (DSLDDEIAV)
- binding to nNOS (nNOS [2]): bind nNOS weakly

Molecule: His6 -FKBP: His6-tagged FK506 binding protein-12 kD, control protein [reference compound]
- competition for / block of nNOS-PSD95 interaction (nNOS/PSD95 interaction [3]): Neither of these proteins compete
- block of nNOS/PSD95 interaction in vitro (nNOS/PSD95 interaction [3]): do not disrupt

Molecule: CAPON: Carboxyl-terminal PDZ ligand of nNOS, 503 amino acid rat cytoplasmic protein
- direct inhibition of nNOS catalytic activity (nNOS [4]): does not inhibit
- amount of myc-PSD95 in anti-HA precipitates (nNOS/PSD95 interaction [5]): substantially reduces

Molecule: LQRQELGDSLDDEIAV [16-residue peptides of CAPON]
- IC50 [6]: 10000 µM

B1: EIAA: His6-CAPON (last 100 amino acids), terminal valine mutated to alanine (protein)
chain: GLADFAHPVGSPLGRRDCLVKLECFRFLPAEDNQPMAQGEPLLGGLELIKFRESGIASEYESNTDESEERDSWSQEELPRLLNVLQRQELGDSLDDEIAA
- binding to GST-NOS (1-100) (nNOS PDZ domain): prevents binding

B2: EAAV: His6-CAPON (last 100 amino acids), n-2 isoleucine mutated to alanine (protein)
chain: B1 chain with I98A, A100V
- binding to GST-NOS (1-100) (nNOS PDZ domain): tolerated

B3: ESAV: His6-CAPON (last 100 amino acids), n-2 isoleucine mutated to serine (protein)
chain: B1 chain with I98S, A100V
- binding to GST-NOS (1-100) (nNOS PDZ domain): tolerated

B4: DC20: His6-CAPON fusion protein with the C-terminal 20 amino acids deleted (protein)
chain: SGALPVLCESTTPKPEDLHSPLLGAGLADFAHPVGSPLGRRDCLVKLECFRFLPAEDNQPMAQGEPLLGGLELIKFRESGIASEYESNTDESEERDSWSQEELPR
- competition for / block of nNOS-PSD95 interaction (nNOS/PSD95 interaction [3]): fails to block the interaction
- block of nNOS/PSD95 interaction in vitro (nNOS/PSD95 interaction [3]): abolishes its ability to serve as a competitor

B5: pAD-CAPON1 (Gal4 activation domain fused to the last 125 amino acids of CAPON) (other)
chain: SGALPVLCESTTPKPEDLHSPLLGAGLADFAHPVGSPLGRRDCLVKLECFRFLPAEDNQPMAQGEPLLGGLELIKFRESGIASEYESNTDESEERDSWSQEELPRLLNVLQRQELGDSLDDEIAV
- binding result [7]: no binding

B6: His6 -CAPON: His6-tagged fusion protein of the C-terminal 100 or 125 amino acids of CAPON (protein)
chain: B5 chain
- competition for nNOS binding to immobilized GST-PSD93 (nNOS/PSD93 interaction): effective competitor
- reduction of nNOS binding to GST-PSD95 (nNOS/PSD95 interaction [3]; 5 nM fusion protein): substantial reduction
- block of nNOS/PSD95 interaction in vitro (nNOS/PSD95 interaction [3]): specifically block
- effective concentration range as competitor (nNOS/PSD95 interaction [3]; see FIG. 5): active in the nanomolar range
- binding to GST-NOS (1-100) (nNOS PDZ domain): binds
